How the values were obtained:
Assay in all cases: phosphate release, molybdate assay, A820
YqeG = target: T1, YqeG (Bacillus subtilis, UniProt P54452); format: biochemical; conditions: 10 mM substrate, 12 h, 50 mM Tris-HCl pH 7.8, 10 mM MgCl2, 250 mM KCl, 1 mM NH4Cl, 37 °C
T1 construct: gene pgpP; full-length ORF, C-terminal His6 (pET28b, NdeI/HindIII), expressed in E. coli BL21(DE3), TALON purified

AraL = target: T2, AraL (Bacillus subtilis, UniProt P94526); format: biochemical; conditions: 10 mM substrate, 12 h, 50 mM Tris-HCl pH 7.8, 10 mM MgCl2, 250 mM KCl, 1 mM NH4Cl, 37 °C
T2 construct: full-length ORF, C-terminal His6 (pET28b, NdeI/XhoI), expressed in E. coli BL21(DE3), TALON purified

[1] = substrate: Nc1ccn([C@@H]2O[C@H](COP(=O)(O)O)[C@@H](O)[C@H]2O)c(=O)n1; format: biochemical, Bacillus subtilis; conditions: 50 mM Tris-HCl pH 7.8, 10 mM MgCl2, 250 mM KCl, 1 mM NH4Cl, 37 °C
[2] = substrate: Nc1nc2c(ncn2[C@@H]2O[C@H](COP(=O)(O)O)[C@@H](O)[C@H]2O)c(=O)[nH]1; format: biochemical, Bacillus subtilis; conditions: 50 mM Tris-HCl pH 7.8, 10 mM MgCl2, 250 mM KCl, 1 mM NH4Cl, 37 °C
[3] = substrate: O=P(O)(O)OC(CO)CO; format: biochemical, Bacillus subtilis; conditions: 50 mM Tris-HCl pH 7.8, 10 mM MgCl2, 250 mM KCl, 1 mM NH4Cl, 37 °C
[4] = substrate: O=c1ccn([C@@H]2O[C@H](COP(=O)(O)O)[C@@H](O)[C@H]2O)c(=O)[nH]1; format: biochemical, Bacillus subtilis; conditions: 50 mM Tris-HCl pH 7.8, 10 mM MgCl2, 250 mM KCl, 1 mM NH4Cl, 37 °C
[5] = substrate: Nc1ncnc2c1ncn2[C@@H]1O[C@H](COP(=O)(O)O)[C@@H](O)[C@H]1O; format: biochemical, Bacillus subtilis; conditions: 50 mM Tris-HCl pH 7.8, 10 mM MgCl2, 250 mM KCl, 1 mM NH4Cl, 37 °C

T1 sequence (P54452 whole entry): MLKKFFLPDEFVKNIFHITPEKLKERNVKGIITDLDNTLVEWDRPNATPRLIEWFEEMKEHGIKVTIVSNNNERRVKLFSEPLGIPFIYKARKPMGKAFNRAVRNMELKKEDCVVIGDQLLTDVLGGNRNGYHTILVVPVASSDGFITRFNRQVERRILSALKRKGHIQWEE
T2 sequence (P94526 whole entry): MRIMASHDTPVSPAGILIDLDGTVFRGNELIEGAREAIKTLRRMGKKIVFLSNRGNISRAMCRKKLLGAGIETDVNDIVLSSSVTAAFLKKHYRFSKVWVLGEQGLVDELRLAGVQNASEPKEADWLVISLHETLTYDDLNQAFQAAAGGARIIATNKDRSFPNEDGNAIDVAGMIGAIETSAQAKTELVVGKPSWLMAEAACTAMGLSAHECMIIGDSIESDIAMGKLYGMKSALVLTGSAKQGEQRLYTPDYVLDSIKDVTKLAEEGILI

Molecule | phosphate release, molybdate assay, A820 (YqeG) | phosphate release, molybdate assay, A820 (AraL) | Km [1] | Km [2] | Km [3] | Km [4] | Km [5]
O=P(O)(O)OC[C@H]1OC(O)[C@H](O)[C@@H](O)[C@@H]1O (some centres unmarked) [G6P] | YqeG hydrolyzed GMP and G6P only at the higher concentration | AraL activity was enhanced particularly against G6P at the higher concentration |  |  |  |  | 
Nc1nc2c(ncn2[C@@H]2O[C@H](COP(=O)(O)O)[C@@H](O)[C@H]2O)c(=O)[nH]1 [GMP] | YqeG hydrolyzed GMP and G6P only at the higher concentration |  |  |  |  |  | 
YktC (Bacillus subtilis subsp. subtilis str. 168) (protein, full-length ORF, C-terminal His6 (pET28b, BamHI/HindIII), expressed in E. coli BL21(DE3), TALON purified) MTNWTEIDEIAKKWIREAGARITQSMHESLTIETKSNPNDLVTNIDKETEKFFIDRIQETFPGHRILGEEGQGDKIHSLEGVVWIIDPIDGTMNFVHQQRNFAISIGIFENGEGKIGLIYDVVHDELYHAFSGRGAYMNETKLAPLKETVIEEAILAINATWVTENRRIDQSVLAPLVKRVRGTRSYGSAALELANVAAGRIDAYITMRLAPWDYAAGCVLLNEVGGTYTTIEGEPFTFLENHSVLAGNPSIHKTIFEEYLHARK |  |  | 1.6 ± 0.017 mM | 1.9 ± 0.026 mM | 0.49 ± 0.035 mM | 2.4 ± 0.052 mM | 
YcsE (Bacillus subtilis subsp. subtilis str. 168) (protein, full-length ORF, C-terminal His6 (pET28b, NdeI/XhoI), expressed in E. coli BL21(DE3), TALON purified) MSVQREDVDIKLIAIDMDGTLLNDEQLISDENRKAIREAEDKGVYVVISTGRTLMTCRELAESLKLSSFLITANGSEIWDSNFNLVERKLLHTDHIQMMWDLRNKHNTNFWASTVNKVWRGEFPENITDHEWLKFGFDIEDDDIRNEVLEELRKNKELEITNSSPTNIEVNALGINKAAALAKVTEKLGFTMENVMAMGDSLNDIAMIKEAGLGVAMGNAQDIVKETADYITDTNIEDGVAKAIRHWVL |  |  | 4.7 ± 0.23 mM | 10.3 ± 0.12 mM |  | 8.5 ± 0.69 mM | 8.6 ± 0.80 mM

From publication PMC5080769, “Bacillus subtilis 5′-nucleotidases with various functions and substrate specificities” (BMC Microbiology, 2016)
